# Laboratory results: the Immune Epitope Database (IEDB)
# Tests used:
# HLA-A*01:01 = assay: IEDB peptide-MHC binding, purified MHC/direct/fluorescence; filed as Kd, often an IC50 or EC50 that approximates it; ≥ and ≤ were set here for values at or beyond the usual limits of such assays
# HLA-A*02:01 [1] = assay: as above
# HLA-A*03:01 = assay: as above
# HLA-A*11:01 = assay: as above
# HLA-A*26:01 = assay: as above; conditions: source organism: Corynebacterium glutamicum
# HLA-A*31:01 = assay: as above
# HLA-A*69:01 = assay: as above
# HLA-B*07:02 = assay: as above; conditions: source organism: Corynebacterium glutamicum
# HLA-B*08:01 = assay: as above
# HLA-B*15:01 [2] = assay: as above
# HLA-B*27:05 = assay: as above
# HLA-B*40:01 = assay: as above
# HLA-B*58:01 [3] = assay: as above
# HLA-B*15:42 = assay: IEDB peptide-MHC binding, purified MHC/competitive/fluorescence; filed as Kd, often an IC50 or EC50 that approximates it; ≥ and ≤ were set here for values at or beyond the usual limits of such assays
# HLA-B*45:06 = assay: as above
# HLA-B*83:01 = assay: as above
# HLA-B*08:02 = assay: IEDB peptide-MHC binding, purified MHC/direct/fluorescence; filed as Kd, often an IC50 or EC50 that approximates it; ≥ and ≤ were set here for values at or beyond the usual limits of such assays; conditions: source organism: Mycobacterium tuberculosis str. Haarlem
# HLA-B*18:01 = assay: as above; conditions: source organism: Mycobacterium tuberculosis
# HLA-B*46:01 = assay: as above; conditions: source organism: Mycobacterium tuberculosis
# HLA-B*48:01 = assay: as above; conditions: source organism: Mycobacterium tuberculosis
# HLA-B*51:01 [4] = assay: as above
# HLA-B*57:01 [5] = assay: as above; conditions: source organism: Mycobacterium tuberculosis
# HLA-A*30:01 [6] = assay: IEDB peptide-MHC binding, purified MHC/competitive/fluorescence; filed as Kd, often an IC50 or EC50 that approximates it; ≥ and ≤ were set here for values at or beyond the usual limits of such assays; conditions: source organism: Mycobacterium tuberculosis C
# HLA-B*15:01 [7] = assay: as above
# HLA-B*15:17 = assay: IEDB peptide-MHC binding, purified MHC/direct/fluorescence; filed as Kd, often an IC50 or EC50 that approximates it; ≥ and ≤ were set here for values at or beyond the usual limits of such assays; conditions: source organism: Mycobacterium tuberculosis
# HLA-C*12:03 = assay: as above
# HLA-B*51:01 [8] = assay: IEDB peptide-MHC binding, purified MHC/competitive/fluorescence; filed as Kd, often an IC50 or EC50 that approximates it; ≥ and ≤ were set here for values at or beyond the usual limits of such assays; conditions: source organism: Vibrio vulnificus CMCP6
# HLA-A*30:01 [9] = assay: IEDB peptide-MHC binding, purified MHC/competitive/radioactivity; filed as Kd, often an IC50 or EC50 that approximates it; ≥ and ≤ were set here for values at or beyond the usual limits of such assays; conditions: source organism: Dengue virus 1 Brazil/97-11/1997
# HLA-B*57:01 [10] = assay: as above
# HLA-B*58:01 [11] = assay: as above
# HLA-A*02:01 [12] = assay: IEDB peptide-MHC binding, purified MHC/competitive/fluorescence; filed as Kd, often an IC50 or EC50 that approximates it; ≥ and ≤ were set here for values at or beyond the usual limits of such assays
# HLA-A*02:12 = assay: as above; conditions: source organism: Shigella dysenteriae Sd197
# HLA-A*32:01 = assay: IEDB peptide-MHC binding, purified MHC/competitive/radioactivity; filed as Kd, often an IC50 or EC50 that approximates it; ≥ and ≤ were set here for values at or beyond the usual limits of such assays; conditions: source organism: Dengue virus 2 Jamaica/1409/1983
# HLA-B*39:01 = assay: IEDB peptide-MHC binding, purified MHC/competitive/fluorescence; filed as Kd, often an IC50 or EC50 that approximates it; ≥ and ≤ were set here for values at or beyond the usual limits of such assays; conditions: source organism: Salmonella enterica subsp. enterica serovar Typhi
# [13] = source organism: Corynebacterium glutamicum
# [14] = source organism: Corynebacterium glutamicum ATCC 13032
# [15] = source organism: Mycobacterium tuberculosis
# [16] = source organism: Mycobacterium tuberculosis str. Haarlem
# [17] = source organism: Mycobacterium tuberculosis C
# [18] = source organism: Dengue virus 1 Brazil/97-11/1997
# [19] = source organism: Dengue virus 1 Singapore/S275/1990
# [20] = source organism: West Nile virus
# [21] = source organism: Dengue virus 2 Jamaica/1409/1983
# [22] = source organism: Salmonella enterica subsp. enterica serovar Typhi
# [23] = source organism: Dengue virus 3 Martinique/1243/1999
sequence,measurement,setting,value
AEHDPWWAV,Kd,HLA-A*01:01; [13],≥ 20 µM
same,Kd,HLA-A*02:01 [1]; [13],≥ 20 µM
same,Kd,HLA-A*03:01; [13],≥ 20 µM
same,Kd,HLA-A*11:01; [13],≥ 20 µM
same,Kd,HLA-A*26:01,≥ 20 µM
same,Kd,HLA-A*31:01; [13],≥ 20 µM
same,Kd,HLA-A*69:01; [13],≥ 20 µM
same,Kd,HLA-B*07:02,8.99 µM
same,Kd,HLA-B*08:01; [13],≥ 20 µM
same,Kd,HLA-B*15:01 [2]; [13],≥ 20 µM
same,Kd,HLA-B*27:05; [13],≥ 20 µM
same,Kd,HLA-B*40:01; [13],0.0549 µM
same,Kd,HLA-B*58:01 [3]; [13],≥ 20 µM
same,Kd,HLA-B*15:42; [14],≥ 5 µM
same,Kd,HLA-B*45:06; [14],≥ 5 µM
same,Kd,HLA-B*83:01; [14],≥ 5 µM
APRARTAAF,Kd,HLA-A*01:01; [15],≥ 20 µM
same,Kd,HLA-A*02:01 [1]; [15],≥ 20 µM
same,Kd,HLA-A*03:01; [15],≥ 20 µM
same,Kd,HLA-A*11:01; [15],≥ 20 µM
same,Kd,HLA-A*31:01; [15],≥ 20 µM
same,Kd,HLA-A*69:01; [15],≥ 20 µM
same,Kd,HLA-B*08:01; [16],0.005 µM
same,Kd,HLA-B*08:02,0.23 µM
same,Kd,HLA-B*18:01,12.3 µM
same,Kd,HLA-B*27:05; [15],≥ 20 µM
same,Kd,HLA-B*40:01; [15],≥ 20 µM
same,Kd,HLA-B*46:01,≥ 20 µM
same,Kd,HLA-B*48:01,≥ 20 µM
same,Kd,HLA-B*51:01 [4]; [15],≥ 20 µM
same,Kd,HLA-B*57:01 [5],≥ 20 µM
same,Kd,HLA-B*58:01 [3]; [15],≥ 20 µM
same,Kd,HLA-A*30:01 [6],≥ 20 µM
same,Kd,HLA-B*15:01 [7]; [17],≥ 20 µM
same,Kd,HLA-B*15:42; [17],≥ 5 µM
same,Kd,HLA-B*45:06; [17],≥ 5 µM
same,Kd,HLA-B*83:01; [17],0.0526 µM
APRGFRAAF,Kd,HLA-A*01:01; [15],≥ 20 µM
same,Kd,HLA-A*02:01 [1]; [15],≥ 20 µM
same,Kd,HLA-A*03:01; [15],≥ 20 µM
same,Kd,HLA-A*11:01; [15],≥ 20 µM
same,Kd,HLA-A*31:01; [15],≥ 20 µM
same,Kd,HLA-A*69:01; [15],≥ 20 µM
same,Kd,HLA-B*08:01; [16],0.1 µM
same,Kd,HLA-B*15:01 [2]; [15],≥ 20 µM
same,Kd,HLA-B*15:17,5.45 µM
same,Kd,HLA-B*18:01,≥ 20 µM
same,Kd,HLA-B*27:05; [15],≥ 20 µM
same,Kd,HLA-B*40:01; [15],≥ 20 µM
same,Kd,HLA-B*46:01,≥ 20 µM
same,Kd,HLA-B*48:01,≥ 20 µM
same,Kd,HLA-B*51:01 [4]; [15],≥ 20 µM
same,Kd,HLA-B*57:01 [5],≥ 20 µM
same,Kd,HLA-B*58:01 [3]; [15],≥ 20 µM
same,Kd,HLA-B*15:42; [17],≥ 5 µM
same,Kd,HLA-B*45:06; [17],≥ 5 µM
same,Kd,HLA-B*83:01; [17],0.038 µM
FAFHTVFHI,Kd,HLA-C*12:03; source organism: Vibrio vulnificus CMCP6,≤ 0.001 µM
same,Kd,HLA-B*51:01 [8],0.0429 µM
FSLENVRLM,Kd,HLA-C*12:03; source organism: Leishmania panamensis,0.772 µM
KVRKDIPQW,Kd,HLA-A*30:01 [9],0.254 µM
same,Kd,HLA-B*57:01 [10]; [18],0.0355 µM
same,Kd,HLA-B*58:01 [11]; [18],0.00597 µM
NASDRMGMGT,Kd,HLA-B*57:01 [10]; [19],0.652 µM
same,Kd,HLA-B*58:01 [11]; [19],5.12 µM
RVYSDHQAL,Kd,HLA-B*51:01 [4]; [20],≥ 20 µM
same,Kd,HLA-C*12:03; [20],0.65 µM
SVFSRPLPL,Kd,HLA-A*02:01 [12]; source organism: Shigella dysenteriae Sd197,≤ 0.0001 µM
same,Kd,HLA-A*02:12,0.184 µM
TASILLWYAQ,Kd,HLA-A*32:01,≥ 33.1 µM
same,Kd,HLA-B*57:01 [10]; [21],0.029 µM
same,Kd,HLA-B*58:01 [11]; [21],1.01 µM
TQFAGVVTV,Kd,HLA-C*12:03; source organism: Salmonella enterica subsp. enterica serovar Typhi str. CT18,0.003 µM
same,Kd,HLA-A*02:01 [12]; [22],0.0005 µM
same,Kd,HLA-B*15:01 [7]; [22],0.212 µM
same,Kd,HLA-B*39:01,0.0017 µM
VASEGIKYTD,Kd,HLA-B*57:01 [10]; [23],5.16 µM
same,Kd,HLA-B*58:01 [11]; [23],0.34 µM
YLQQNTHTL,Kd,HLA-C*12:03; source organism: Homo sapiens,0.09 µM
